Reference: publication PMC9237108, “The Vibrio vulnificus stressosome is an oxygen-sensor involved in regulating iron metabolism” (Communications Biology, 2022)

B1: VvRsbS, recombinant, untagged, co-expressed with VvRsbR (natural protein, Vibrio vulnificus CMCP6, UniProt A0A3Q0KX63 1-117, looked up)
chain: MTMQSAISISKLQDVLIASVQVDLTESTLRDFSLDLLDAVKSTRAKGVMIELSGVKTLDGESMHRLLDVVKTVEVMGRRCLLVGLRPGVVIGLMDIGIDLASTLCVADLEQGFLYLE
notes: VvRsbS of Vibrio vulnificus CMCP6, locus VV2_0074; STAS domain made up of 115 residues; also called VvRsbS2 (dimer)

Tests used:
[1] = target: the molecule itself; test: cryo-EM structure; purified, oxidized VvRsbR:VvRsbS complex (co-expressed in E. coli) at 0.3 mg/mL; single particle reconstructions in C1 and D2; homology models fitted into the map
[2] = target: B1; test: quantification of fluorescently stained SDS-PAGE bands of the purified complex; purified VvRsbR:VvRsbS complex separated by SDS PAGE, stained with Krypton, Typhoon scanner, bands quantified with ImageQuant; settings: both partners purified

Binder | stoichiometry N [1] | stoichiometry N [2]
VvRsbR, recombinant, untagged, co-expressed with VvRsbS (natural protein, Vibrio vulnificus CMCP6, UniProt A0A3Q0KX46 1-306, looked up, VvRsbR of Vibrio vulnificus CMCP6, locus VV2_0073; full-length gene amplified from genomic DNA, expressed untagged from pJPF012; Carries a heme in its N-terminal globin coupled sensor domain; In PDB 7O01 the linker helix was modelled as poly-alanine; also called VvRsbR2 (dimer)) MSLGSVLNKVEDADELLKLHDLTEADLALIRKFGQIMVPKLDEYVKHFYDWLRNTPEYEQYFGDAQKLQRVQDSQVRYWKTFFDARIDSAYLKERRDVGEIHARVGLPLPTYFAGMNISMVIFTKRMYDGSLYSDEYSSLVTAFTKLLHLDTTIVVDTYSRLINKRISEQSEALLAMSTPVTMIWQDILMLPIVGIIDSKRAQDIMSAVLNKISENRAKIFIMDISGVAVVDTAVANHFIKITKATKLMGCDCLVSGVSPSIARTMVQLGINVGEVRTNATLRDALENAFKIVGLTVSGLKHFPHE | 2 | 2.4 VvRsbR:VvRsbS
B1 | 2 | –
